For assay [1], the target named is HLA-B*15:17. The experiment in a line: IEDB peptide-MHC binding, purified MHC/direct/fluorescence; filed as Kd, often an IC50 or EC50 that approximates it; ≥ and ≤ were set here for values at or beyond the usual limits of such assays.
The target in assay [2] is HLA-B*58:01. Described as above.
Assay [3] has as its target HLA-B*57:01. Described as above.
Assay [4] addresses HLA-A*32:01. The experiment in a line: IEDB peptide-MHC binding, purified MHC/competitive/radioactivity; filed as Kd, often an IC50 or EC50 that approximates it; ≥ and ≤ were set here for values at or beyond the usual limits of such assays. Conditions: source organism: Dengue virus 3 Martinique/1243/1999.
In assay [5] the target is HLA-A*02:06. The assay is described as above. Particulars: source organism: Dengue virus 3 Martinique/1243/1999.
Assay [6] addresses HLA-B*45:01. The assay is described as above.
Assay [7] deals with HLA-B*40:02. The assay is described as above.
The target in assay [8] is HLA-B*40:01. Described as above.
The target of assay [9] is HLA-B*44:02. The description is as above.
The target of assay [10] is HLA-B*18:01. The assay is described as above.
For assay [11], the target named is HLA-B*44:03. The description is as above.
In assay [12] the target is HLA-B*48:01. Description: IEDB peptide-MHC binding, purified MHC/direct/fluorescence; filed as Kd, often an IC50 or EC50 that approximates it; ≥ and ≤ were set here for values at or beyond the usual limits of such assays. Particulars: source organism: West Nile virus.
The target in assay [13] is HLA-B*58:01. Description: IEDB peptide-MHC binding, purified MHC/competitive/radioactivity; filed as Kd, often an IC50 or EC50 that approximates it; ≥ and ≤ were set here for values at or beyond the usual limits of such assays.
The target of assay [14] is HLA-B*39:01. Description: IEDB peptide-MHC binding, purified MHC/competitive/fluorescence; filed as Kd, often an IC50 or EC50 that approximates it; ≥ and ≤ were set here for values at or beyond the usual limits of such assays. Particulars: source organism: Homo sapiens.
Assay [15] has as its target HLA-B*15:01. The assay is described as above. Particulars: source organism: Homo sapiens.
Assay [16] has as its target HLA-B*18:01. The description is as above. Conditions: source organism: Homo sapiens.
Assay [17] deals with HLA-A*26:01. The assay is described as above. Conditions: source organism: Homo sapiens.
Assay [18] has as its target HLA-B*46:01. Described as above. Conditions: source organism: Homo sapiens.
In assay [19] the target is HLA-A*02:01. Described as above. Particulars: source organism: Homo sapiens.
In assay [20] the target is HLA-A*69:01. Described as above. Conditions: source organism: Homo sapiens.
In assay [21] the target is HLA-B*51:01. The assay is described as above. Particulars: source organism: Homo sapiens.
Assay [22] has as its target HLA-B*27:03. Described as above. Particulars: source organism: Homo sapiens.
In assay [23] the target is HLA-B*57:01. Described as above. Particulars: source organism: Homo sapiens.
Assay [24] has as its target HLA-A*03:01. The assay is described as above.
Assay [25] deals with HLA-B*15:17. Described as above. Particulars: source organism: Homo sapiens.
The target in assay [26] is HLA-A*02:01. The experiment in a line: IEDB peptide-MHC binding, purified MHC/direct/fluorescence; filed as Kd, often an IC50 or EC50 that approximates it; ≥ and ≤ were set here for values at or beyond the usual limits of such assays. Conditions: source organism: Homo sapiens.
Setting [27] is: source organism: Giardia lamblia ATCC 50803.
Setting [28] is: source organism: dengue virus type 4.
Where [29] appears, read: source organism: Camelpox virus M-96.
Setting [30] is: source organism: SARS coronavirus Tor2.
[31] abbreviates: source organism: Mammarenavirus machupoense.
Where [32] appears, read: source organism: Mammarenavirus lassaense.
[33] abbreviates: source organism: Mammarenavirus juninense.
The mark [34] stands for this setting: source organism: Vibrio parahaemolyticus AQ3810.
Where [35] appears, read: source organism: Mammarenavirus whitewaterense.
The mark [36] stands for this setting: source organism: Mammarenavirus brazilense.

For 26 sequences, Kd results are on record in the Immune Epitope Database (IEDB).

In general, Kd refers to a measure of binding affinity in units of concentration. On to LASSSYEQF, for which the Kd in assay [1] (setting [27]) amounted to 0.0218 µM; in assay [2] (setting [27]), 0.0365 µM; in [3] (setting [27]), 0.189 µM.

As for KAYAQMWSL, the Kd in assay [1] (setting [28]) amounted to 0.0013 µM; in assay [3] (setting [28]), 0.0101 µM; in assay [4] it was 0.0248 µM; in assay [5], 0.0272 µM.

Turning to KLIEGTNIW, the Kd stood at 0.0679 µM in assay [1] (setting [29]), 0.0077 µM in assay [2] (setting [29]) and 0.0705 µM in assay [3] (setting [29]).

For TEHSWNADL, the Kd in [6] (setting [30]) worked out at 0.331 µM; in assay [7] (setting [30]), 0.132 µM; in assay [8] (setting [30]), 0.034 µM; in assay [9] (setting [30]), 0.125 µM; in assay [10] (setting [30]) it was 8.39 µM; in assay [11] (setting [30]), 0.137 µM.

In [12], GRLVTVNPF registered a Kd of no less than 20 µM.

Take PDVGVLFGL: the Kd in [6] (setting [31]) was no less than 25.1 µM; in assay [7] (setting [31]), no less than 22.8 µM; in assay [8] (setting [31]), no less than 76.1 µM; in assay [9] (setting [31]), no less than 77.9 µM; in assay [10] (setting [31]), no less than 44.1 µM; in assay [11] (setting [31]), no less than 78.1 µM.

As for LASAILNAHE, the dissociation constant (Kd) in [13] (source organism: Dengue virus 4 Philippines/H241/1956) was 0.983 µM.

On to KEAYCQEFLL, for which the Kd in [6] (setting [32]) was 6.68 µM; in [7] (setting [32]), 0.0337 µM; in assay [8] (setting [32]) it was 10.2 µM; in assay [9] (setting [32]) it was 1.26 µM; in assay [10] (setting [32]) it was no less than 45.9 µM; in [11] (setting [32]), 5.01 µM.

In the case of HDLPLLCTL, the Kd in assay [6] (setting [33]) was no less than 74.6 µM; in [7] (setting [33]), 0.00852 µM; in assay [8] (setting [33]), 16.1 µM; in assay [9] (setting [33]), 9.82 µM; in [10] (setting [33]), 1.71 µM; in [11] (setting [33]), 19.1 µM.

Consider VEYYPLLFIT, for which the Kd is 0.568 µM in assay [6] (setting [30]); 0.0126 µM in [7] (setting [30]); 5.12 µM in assay [8] (setting [30]); no less than 62 µM in assay [9] (setting [30]); 8.28 µM in assay [10] (setting [30]); 8.31 µM in assay [11] (setting [30]).

Take GETALALLL: the Kd was 0.448 µM in assay [6] (setting [30]); 0.00778 µM in [7] (setting [30]); 0.00122 µM in assay [8] (setting [30]); 0.0314 µM in assay [9] (setting [30]); no less than 22.7 µM in [10] (setting [30]); 0.0132 µM in assay [11] (setting [30]).

On to TEAFEKMVSL, for which the Kd in assay [6] (setting [30]) came to 4.46 µM; in [7] (setting [30]) it was 0.0347 µM; in assay [8] (setting [30]), 0.00352 µM; in assay [9] (setting [30]), 1.92 µM; in [10] (setting [30]), 1.55 µM; in [11] (setting [30]) it was 5.74 µM.

For the sequence VSDFRKEFY, the Kd in [14], in assay [15], in assay [16], in assay [17], in assay [18] and in [19] was no less than 20 µM throughout. Besides, the Kd in assay [20], in assay [21], in [22] and in assay [23] was no less than 20 µM each time.

With QTWKPDDVL, the dissociation constant (Kd) is 0.73 µM in assay [1] (setting [34]), no less than 20 µM in assay [2] (source organism: Vibrio parahaemolyticus) and no less than 20 µM in assay [3] (setting [34]).

In the case of VELKHFFFA, the Kd in assay [6] (setting [30]) is 0.0158 µM; in assay [7] (setting [30]) it was 0.103 µM; in [8] (setting [30]), no less than 29.8 µM; in assay [9] (setting [30]) it was 15.6 µM; in [10] (setting [30]), 1.71 µM; in [11] (setting [30]) it was 2.63 µM.

SEGVPDLLV: the Kd in assay [6] (setting [30]) was 13.9 µM; in assay [7] (setting [30]), no less than 37 µM; in [8] (setting [30]), no less than 29.1 µM; in [9] (setting [30]), no less than 37.1 µM; in assay [10] (setting [30]) it was no less than 77.5 µM; in assay [11] (setting [30]), no less than 20.9 µM.

For the sequence REMLAHAEET, the Kd in assay [6] (setting [30]) is 0.151 µM; in assay [7] (setting [30]) it was 0.068 µM; in [8] (setting [30]) it was 0.922 µM; in [9] (setting [30]), 0.895 µM; in assay [10] (setting [30]), 1.03 µM; in assay [11] (setting [30]), 0.228 µM.

Consider AEQSRIFEEL, for which the Kd in assay [6] (setting [35]) was 0.206 µM; in [7] (setting [35]), 0.0168 µM; in assay [8] (setting [35]), 10.2 µM; in assay [9] (setting [35]), 0.0574 µM; in assay [10] (setting [35]) it was no less than 20.8 µM; in assay [11] (setting [35]), 0.43 µM.

For the sequence PEDQGNPIVL, the dissociation constant Kd is no less than 70 µM in assay [6] (setting [36]); 10.5 µM in assay [7] (setting [36]); no less than 30.6 µM in [8] (setting [36]); no less than 70.2 µM in assay [9] (setting [36]); no less than 39.3 µM in assay [10] (setting [36]); no less than 70.1 µM in [11] (setting [36]).

For WMASVEPHW, the Kd in [13] (source organism: Dengue virus 1 Brazil/97-11/1997) stood at 0.0133 µM.

Turning to FSFGDYFKH, in [24] (source organism: Escherichia coli O157:H7 str. Sakai), the equilibrium dissociation constant (Kd) was no less than 20 µM.

As for VLIRRCHYL, the dissociation constant (Kd) in [14], in assay [15], in [25], in [16], in [17] and in assay [18] was no less than 20 µM throughout. Besides, the Kd was no less than 20 µM in assay [20]; no less than 20 µM in [21]; no less than 20 µM in assay [22]; no less than 20 µM in [23]; 0.0015 µM in assay [26].

In [24] (source organism: Trichodesmium erythraeum IMS101), RVDEIILFH yielded a Kd of 0.073 µM.

Consider QLAFFVAGK, for which, in assay [24] (source organism: Escherichia coli K-12), the Kd was 0.0128 µM.

For EEPAALLPL, the Kd in assay [6] (setting [31]) is no less than 23.4 µM; in assay [7] (setting [31]), 0.0571 µM; in assay [8] (setting [31]) it was 7.11 µM; in assay [9] (setting [31]) it was no less than 39.9 µM; in [10] (setting [31]), 5.64 µM; in assay [11] (setting [31]) it was no less than 41.2 µM.

Take RWFFRPLRK: the dissociation constant Kd in [24] (source organism: Entamoeba dispar SAW760) came out at 0.125 µM.
